# Experimental data as given in patent US20220098328A1, “ANTIBODIES TO M(H)DM2/4 AND THEIR USE IN DIAGNOSING AND TREATING CANCER” (NomoCan Pharmaceuticals LLC, priority 2017, published 2022).
# B1: NMC-103: mouse monoclonal antibody of the IgG1 isotype that binds to NMC-P1 (SEQ ID NO:1); VH SEQ ID NO:36, VL SEQ ID NO:37 (antibody, V domains shown)
# VH: EVQLQESGGGLVQPGGSLRLSCTTSGFTFTHYYMSWVRQPPGKALEWLGFIRNKAKGYTAEYSASVKGRFTISRDNSQSILYLQMNTLRPEDSATYYCARDIGDNWGQGTLVTVSS
# VL: DIVMTQAAFSNPVTLGTSASISCRSSKNLLHSNGITYLYWYLQRPGQSPQLLISRVSNLASGVPNRFSGSESGTDFTLRISRVEAEDVGVYFCAQLLELPYTFGGGTKLEIK
# modifications: mAb NMC-103 Heavy Chain Variable Region; mAb NMC-103 Light Chain Variable Region
# Tested on: mouse pancreatic cancer Panc-2 cells
# Assay: Panc-2 syngeneic mouse model of pancreatic cancer
# Type: in vivo
# Protocol: Methodology used (Syngeneic Mouse Models of lung, colon and pancreatic cancer): To investigate the anti-tumor effects of HDM2-specific antibodies on lung, colon and pancreatic tumors in vivo, three well-known syngeneic mouse models of lung, colon and pancreatic cancer were used (Sharma et al., 1999, J. Immunol. 163 (9):5020-5028; McIntyre, 2015, Bioassays 37(8):909-920; Li, et al., 2015, Sci. Rep. 5:7856). Subcutaneous tumors were prepared by implanting either mouse Lewis Lung cancer LL/2 cells (2.5×10^5 cells/mouse), mouse colon cancer MC-38 cells (5×10^5 cells/mouse) or mouse pancreatic cancer Panc-2 cells (2×10^6 cells/mouse) in the right flanks of 8-week-old female C57BL/6 mice (n=6-7). The mice were returned to their respective cages after tumor implantation. From day 7 after tumor implantation, the tumor volumes were measured 2 times/week with a digital caliper. In the case of MC-38 and Panc-2 study, treatment started when the tumors reached an average of 70-80 mm^3. In the case of LL/2 study, tumor cell inoculation and treatment were initiated simultaneously. Mice were micro-chipped and registered following tumor implantation. Tumor volume measurements and body weights were recorded and mice were randomized into groups that received: A) mAb NMC-103 at 0.4 mg/kg (3 times a week for 3 weeks), 2 mg/kg (2 times a week for 3 weeks), or 4 mg/kg (2 times a week for 3 weeks); B) NMC-204 at 0.4 mg/kg (3 times a week for 3 weeks); C) isotype control mouse IgG1 (Abcam, Cat. No. ab18447) or IgG3 (Abcam, Cat. No. ab18392) at 0.4 mg/kg (3 times a week for 3 weeks) or 4 mg/kg (2 times a week for 3 weeks); D) Gemcitabine (25 mg/kg) and nab-paclitaxel (5 mg/kg) 2 times a week for 3 weeks; or E) a combination of gemcitabine (25 mg/kg), nab-paclitaxel (5 mg/kg) and mAb NMC-103 (2 mg/kg; 2 times a week for 3 weeks) or (10 mg/kg; 2 times a week for 2 weeks). All tumors were injected subcutaneously and all treatments were performed by intraperitoneal injection. Any mouse displaying prolonged adverse clinical signs, or with body weight loss exceeding 15% relative to body weight at day 0, was euthanized. Tumor measurements from post-treatment with HDM2-specific antibodies versus isotype control mouse antibodies versus standard of care treatment (gemcitabine and nab-paclitaxel) were made, and results are presented in FIGS. 16-19.
# The anti-tumor efficacy of NMC-103 and of its combination with pancreatic cancer standard of care treatment Gemcitabine (G) and nab-Paclitaxel (nP) was further evaluated in vivo utilizing the Panc-2 syngeneic mouse model of pancreatic cancer discussed above. In this Panc-2 study, treatment started after Panc-2 cell inoculation and when the tumors reached 80-100 mm^3, with mAb NMC-103 administered at 10 mg/kg, two times a week in a larger number of mice (n=8/group) than that used for the study of FIG. 19.
# Evaluation of anti-tumor effects of antibody OP145 on pancreatic tumor growth in vivo: Subcutaneous tumors were prepared by implanting Panc02 cells (2×10^6 per mouse) in the right flanks of female 8-week-old C57BL/6 mice. The mice were returned to their respective cages after tumor implantation. From day 7 after tumor implantation, the tumor volumes were measured 2 times/week with a digital caliper. Treatment started when the tumors reached an average of 200 mm^3 (see FIG. 26, day 14). Mice were micro-chipped and registered following tumor implantation. Tumor volume measurements and body weights were recorded and mice were randomized into two groups that received either OP145 antibody (by intra-tumoral injection of 0.1 mg/kg of mouse monoclonal antibody OP145, 3 times per week) or PBS. Three mice were treated with OP145, and five mice were treated with PBS. Any mouse displaying prolonged adverse clinical signs, or with body weight loss exceeding 15% from Day 0 body weight, was euthanized. Tumor measurements from the first 10 days post treatment with OP145 antibody versus PBS were made, and results are represented in FIG. 26. […]
molecule,measurement,setting,value
B1,average tumor volume,"Panc-2, n=6, start at ~70 mm^3, i.p. 2 times a week for 3 weeks (6th dose day 19), then 2 weeks off, antibody 2 mg/kg, Gemcitabine 25 mg/kg, nab-Paclitaxel 5 mg/kg, by day 35",1523 mm^3
same,average tumor size / measurement,"Panc-02, start at 80-100 mm^3, n=8/group, i.p. 2 times a week for 4 weeks, NMC-103 10 mg/kg, Gemcitabine 25 mg/kg, nab-Paclitaxel 5 mg/kg, by day 34, in NMC-103 groups attributed to scar and inflammation",230 mm^3
same,tumor size 6 days post single i.p. injection,"Panc-2, mice pre-treated with Gemcitabine 25 mg/kg + nab-Paclitaxel 5 mg/kg for 19 days (~450 mm^3), single dose 10 mg/kg, from 438 mm^3",233 mm^3
same,tumor growth during 4 further weeks without drug treatment,"Panc-02 study of FIG. 27, up to 62 days since start",no sign of tumor growth beyond the initial scar size
same,Kaplan Meier survival analysis,"conditions of FIG. 27, compared to chemotherapy alone or control antibody",significant survival benefit
same,tumor 10 days after re-challenge with Panc-2 cells,"previously treated mice re-challenged at day 62, 2×10^6 cells s.c. left dorsal flank, no further drug",no tumor was observed
